B1: Soluble GPIHBP1(21–151)-FLAG-His6-Avi (domain or fragment, human)
chain: QTQQEEEEEDEDHGPDDYDEEDEDEVEEEETNRLPGGRSRVLLRCYTCKSLPRDERCNLTQNCSHGQTCTTLIAHGNTESGLLTTHSTWCTDSCQPITKTVEGTQVTMTCCQSSLCNVPPWQSSRVQDPTG
modifications: biotin on the C-terminal AviTag (BirA) where immobilised or labelled with streptavidin-D2; nonbiotinylated as free competitor in TR-FRET
notes: human GPIHBP1, soluble fragment of residues 21–151; also called GPIHBP1-Avi; hGPIHBP1-Avi; source: HEK293T, transfected, purified (Ni-NTA); also co-expressed with LPL and LMF1 in HEK293T and purified as the complex (Ni-NTA, SEC); not shown: AviTag, C-terminal, kept
B5: His6-TEV-LPL (N-terminally His6-tagged human lipoprotein lipase) (enzyme)
chain: ADQRRDFIDIESKFALRTPEDTAEDTCHLIPGVAESVATCHFNHSSKTFMVIHGWTVTGMYESWVPKLVAALYKREPDSNVIVVDWLSRAQEHYPVSAGYTKLVGQDVARFINWMEEEFNYPLDNVHLLGYSLGAHAAGIAGSLTNKKVNRITGLDPAGPNFEYAEAPSRLSPDDADFVDVLHTFTRGSPGRSIGIQKPVGHVDIYPNGGTFQPGCNIGEAIRVIAERGLGDVDQLVKCSHERSIHLFIDSLLNEENPSKAYRCSSKEAFEKGLCLSCRKNRCNNLGYEINKVRAKRSSKMYLKTRSQMPYKVFHYQVKIHFSGTESETHTNQAFEISLYGTVAESENIPFTLPEVSTNKTYSFLIYTEVDIGELLMLKLKWKSDSYFSWSDWWSSPGFAIQKIRVKAGETQKKVIFCSREKVSHLQKGKAPAVFVKCHDKSLNKKSG
notes: human lipoprotein lipase; also called His6-LPL; hLPL; not shown: His6, N-terminal, kept
B6: His6-LPL-HA-FLAG (enzyme, human)
chain: ADQRRDFIDIESKFALRTPEDTAEDTCHLIPGVAESVATCHFNHSSKTFMVIHGWTVTGMYESWVPKLVAALYKREPDSNVIVVDWLSRAQEHYPVSAGYTKLVGQDVARFINWMEEEFNYPLDNVHLLGYSLGAHAAGIAGSLTNKKVNRITGLDPAGPNFEYAEAPSRLSPDDADFVDVLHTFTRGSPGRSIGIQKPVGHVDIYPNGGTFQPGCNIGEAIRVIAERGLGDVDQLVKCSHERSIHLFIDSLLNEENPSKAYRCSSKEAFEKGLCLSCRKNRCNNLGYEINKVRAKRSSKMYLKTRSQMPYKVFHYQVKIHFSGTESETHTNQAFEISLYGTVAESENIPFTLPEVSTNKTYSFLIYTEVDIGELLMLKLKWKSDSYFSWSDWWSSPGFAIQKIRVKAGETQKKVIFCSREKVSHLQKGKAPAVFVKCHDKSLNKKSG
notes: human lipoprotein lipase; Used as the complex with biotinylated hGPIHBP1-Avi in the TR-FRET assay; also called His6-hLPL-HA-FLAG; source: HEK293T, co-transfected with GPIHBP1 and LMF1, complex purified (Ni-NTA, SEC); not shown: His6, N-terminal, kept; HA, C-terminal, kept; FLAG, C-terminal, kept

Tests used:
[1] = target: B6; assay: FRET or BRET; TR-FRET; 10 nM His6-hLPL-HA-FLAG/biotinylated hGPIHBP1-Avi complex challenged with 1–1000 nM nonbiotinylated ANGPTL4, ANGPTL3 or GPIHBP1, 1 h room temperature; 20 mM HEPES pH 7.4, 100 mM NaCl, 10% heat-inactivated FBS, 5 mM CaCl2; anti-HA-Tb and streptavidin-D2; settings: both partners purified
[2] = target: T1, His6-LPL-HA-FLAG (human); assay: FRET
T1 chain: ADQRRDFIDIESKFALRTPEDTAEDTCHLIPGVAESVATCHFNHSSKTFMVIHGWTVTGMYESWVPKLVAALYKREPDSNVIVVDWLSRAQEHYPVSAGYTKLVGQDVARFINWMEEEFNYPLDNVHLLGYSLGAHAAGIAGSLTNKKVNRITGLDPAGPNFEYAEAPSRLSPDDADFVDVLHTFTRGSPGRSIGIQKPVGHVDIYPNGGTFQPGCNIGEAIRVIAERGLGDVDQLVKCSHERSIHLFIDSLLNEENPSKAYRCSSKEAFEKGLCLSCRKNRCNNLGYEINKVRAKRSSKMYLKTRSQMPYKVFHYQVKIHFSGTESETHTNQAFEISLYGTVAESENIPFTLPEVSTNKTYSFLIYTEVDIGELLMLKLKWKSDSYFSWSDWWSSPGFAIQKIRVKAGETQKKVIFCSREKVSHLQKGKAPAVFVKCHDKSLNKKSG

[3] = target: B5; assay: cell-based or functional assay
[4] = target: T2, LPL (untagged human lipoprotein lipase) (human); assay: cell-based or functional assay
T2 chain: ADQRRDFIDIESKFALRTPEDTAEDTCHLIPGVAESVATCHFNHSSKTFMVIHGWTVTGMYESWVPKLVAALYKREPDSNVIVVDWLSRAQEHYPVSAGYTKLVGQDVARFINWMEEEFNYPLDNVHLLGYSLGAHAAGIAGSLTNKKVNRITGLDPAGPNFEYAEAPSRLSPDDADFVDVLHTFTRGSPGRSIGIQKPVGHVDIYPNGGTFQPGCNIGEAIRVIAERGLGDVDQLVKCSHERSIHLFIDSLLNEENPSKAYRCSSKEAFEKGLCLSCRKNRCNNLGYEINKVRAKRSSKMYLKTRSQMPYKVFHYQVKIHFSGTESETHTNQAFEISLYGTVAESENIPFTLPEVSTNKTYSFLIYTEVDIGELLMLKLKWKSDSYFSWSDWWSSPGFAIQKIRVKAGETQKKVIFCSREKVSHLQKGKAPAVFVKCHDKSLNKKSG

[5] = target: T1, His6-LPL-HA-FLAG; assay: FRET; dissociation of LPL(HA)-GPIHBP1(Avi) complex (10 nM)
[6] = target: T1, His6-LPL-HA-FLAG; assay: FRET; competition: dissociation of LPL(HA)/GPIHBP1(Avi) complex
[7] = target: T3, LPL(28–475)-(G4S)4-hGPIHBP1(21–151)-FLAG-His6-Avi (human, biotin on the C-terminal AviTag (BirA) in ELISA and SPR); assay: cell-based or functional assay
T3 chain: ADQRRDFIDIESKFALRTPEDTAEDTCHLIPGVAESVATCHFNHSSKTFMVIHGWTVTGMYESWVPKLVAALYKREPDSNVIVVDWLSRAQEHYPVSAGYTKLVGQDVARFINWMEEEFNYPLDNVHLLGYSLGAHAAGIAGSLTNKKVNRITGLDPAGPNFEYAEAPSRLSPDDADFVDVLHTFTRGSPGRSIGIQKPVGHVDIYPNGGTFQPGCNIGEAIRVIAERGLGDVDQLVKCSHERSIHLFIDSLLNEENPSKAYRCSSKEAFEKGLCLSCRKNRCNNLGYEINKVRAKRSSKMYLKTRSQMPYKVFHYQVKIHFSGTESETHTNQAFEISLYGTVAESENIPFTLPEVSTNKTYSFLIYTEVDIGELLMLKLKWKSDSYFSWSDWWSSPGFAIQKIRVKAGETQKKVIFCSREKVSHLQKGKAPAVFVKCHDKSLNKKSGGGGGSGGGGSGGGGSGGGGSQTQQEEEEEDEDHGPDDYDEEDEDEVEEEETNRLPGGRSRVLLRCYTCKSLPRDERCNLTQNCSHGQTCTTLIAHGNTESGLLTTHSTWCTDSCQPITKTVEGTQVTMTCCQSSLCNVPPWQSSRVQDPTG

[8] = target: B5; assay: SEC; His6-LPL, GPIHBP1 and LMF1 co-transfected 3:1:1 in HEK293T; complex captured from the medium by Ni-affinity, then Superdex 200 in 10 mM Tris pH 7.5, 300 mM NaCl; eluted at ~75 kDa; settings: both partners purified
[9] = target: B1; assay: ELISA; 10 nM LPL/GPIHBP1 complex or fusion, biotinylated at the C-terminal AviTag of GPIHBP1, incubated with ANGPTL4 (12-point 2-fold dilution from 100 nM), then applied to a streptavidin-coated MSD plate; LPL and ANGPTL4 detected with specific antibodies; settings: both partners purified
[10] = target: B1; assay: FRET or BRET; TR-FRET; 10 nM His6-hLPL-HA-FLAG/biotinylated hGPIHBP1-Avi complex challenged with 1–1000 nM nonbiotinylated ANGPTL4, ANGPTL3 or GPIHBP1, 1 h room temperature; 20 mM HEPES pH 7.4, 100 mM NaCl, 10% heat-inactivated FBS, 5 mM CaCl2; anti-HA-Tb and streptavidin-D2; settings: both partners purified

With B1 the binding result [1] was “binds” and the IC50 [2] was 15 nM.

B2: ANGPTL3(17–460)-FLAG-His6-Avi (natural protein)
chain: SRIDQDNSSFDSLSPEPKSRFAMLDDVKILANGLLQLGHGLKDFVHKTKGQINDIFQKLNIFDQSFYDLSLQTSEIKEEEKELRRTTYKLQVKNEEVKNMSLELNSKLESLLEEKILLQQKVKYLEEQLTNLIQNQPETPEHPEVTSLKTFVEKQDNSIKDLLQTVEDQYKQLNQQHSQIKEIENQLRRTSIQEPTEISLSSKPRAPRTTPFLQLNEIRNVKHDGIPAECTTIYNRGEHTSGMYAIRPSNSQVFHVYCDVISGSPWTLIQHRIDGSQNFNETWENYKYGFGRLDGEFWLGLEKIYSIVKQSNYVLRIELEDWKDNKHYIEYSFYLGNHETNYTLHLVAITGNVPNAIPENKDLVFSTWDHKAKGHFNCPEGYSGGWWWHDECGENNLNGKYNKPRAKSKPERRRGLSWKSQNGRLYSIKSTKMLIHPTDSESFE
In the case of B2, the “IC50 of ANGPTL3-mediated inactivation of 10 nM coexpressed LPL/GPIHBP1 complex, hydrolysis of VLDL” value [3] is reported as 300 nM, the “IC50 of ANGPTL3-mediated inactivation of 10 nM LPL alone, hydrolysis of VLDL” value [4] is reported as 8 nM and the IC50 [5] is reported as 100 nM.

B3: ANGPTL4(26–406)-FLAG-His6-Avi (natural protein)
chain: QPGPVQSKSPRFASWDEMNVLAHGLLQLGQGLREHAERTRSQLSALERRLSACGSACQGTEGSTDLPLAPESRVDPEVLHSLQTQLKAQNSRIQQLFHKVAQQQRHLEKQHLRIQHLQSQFGLLDHKHLDHEVAKPARRKRLPEMAQPVDPAHNVSRLHRLPRDCQELFQVGERQSGLFEIQPQGSPPFLVNCKMTSDGGWTVIQRRHDGSVDFNRPWEAYKAGFGDPHGEFWLGLEKVHSITGDRNSRLAVQLRDWDGNAELLQFSVHLGGEDTAYSLQLTAPVAGQLGATTVPPSGLSVPFSTWDQDHDLRRDKNCAKSLSGGWWFGTCSHSNLNGQYFRSIPQQRQKLKKGIFWKTWRGRYYPLQATTMLIQPMAAEAAS
B3 was tested, and the IC50 [6] was 18 nM, the “IC50 of ANGPTL4-mediated inactivation of 10 nM coexpressed LPL/GPIHBP1 complex, hydrolysis of VLDL” value [3] was 19 nM and the “IC50 of ANGPTL4-mediated inactivation of 10 nM LPL alone, hydrolysis of VLDL” value [4] was 3 nM. For the same binder, the “IC50 of ANGPTL4-mediated inactivation of 10 nM fusion protein against that of LPL alone, hydrolysis of VLDL” value [7] was 36 fold, the “IC50 of ANGPTL4-mediated inactivation of 10 nM fusion protein against that of the coexpressed LPL/GPIHBP1 complex, hydrolysis of VLDL” value [7] was 6 fold and the IC50 [5] was 10 nM.

B4: Soluble GPIHBP1(21–151), untagged (domain or fragment, human)
chain: QTQQEEEEEDEDHGPDDYDEEDEDEVEEEETNRLPGGRSRVLLRCYTCKSLPRDERCNLTQNCSHGQTCTTLIAHGNTESGLLTTHSTWCTDSCQPITKTVEGTQVTMTCCQSSLCNVPPWQSSRVQDPTG
notes: human GPIHBP1, soluble fragment of residues 21–151 (part of the extracellular domain); also called untagged GPIHBP1
For B4, the “stoichiometry N” value [8] was 1.

B5: binds [9].

B6: binds [10].
